Among the data in patent publication US20220332804A1 (CSL INNOVATION, published 2022) are Kd values, retold here.

What all share (experiment): SPR, antibody captured, C2 as analyte;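 further: biacore at 37 °C, anti-C2 mAbs held by immobilised goat anti-human IgG, C2 alanine or serine mutants injected, double-referenced sensorgrams fitted to a 1:1 kinetic or steady-state model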
(In general: SPR reads the build-up and loss of mass on a sensor chip optically.)

Assay [1] addresses T1, human complement C2 (wild type) (human, UniProt P06681 21-752).
T1 construct: Full-length human C2 (NP_000054) with C-terminal 8x His tag, secreted from Expi293F cells and purified from the supernatant; also called WT; huC2
T1 sequence: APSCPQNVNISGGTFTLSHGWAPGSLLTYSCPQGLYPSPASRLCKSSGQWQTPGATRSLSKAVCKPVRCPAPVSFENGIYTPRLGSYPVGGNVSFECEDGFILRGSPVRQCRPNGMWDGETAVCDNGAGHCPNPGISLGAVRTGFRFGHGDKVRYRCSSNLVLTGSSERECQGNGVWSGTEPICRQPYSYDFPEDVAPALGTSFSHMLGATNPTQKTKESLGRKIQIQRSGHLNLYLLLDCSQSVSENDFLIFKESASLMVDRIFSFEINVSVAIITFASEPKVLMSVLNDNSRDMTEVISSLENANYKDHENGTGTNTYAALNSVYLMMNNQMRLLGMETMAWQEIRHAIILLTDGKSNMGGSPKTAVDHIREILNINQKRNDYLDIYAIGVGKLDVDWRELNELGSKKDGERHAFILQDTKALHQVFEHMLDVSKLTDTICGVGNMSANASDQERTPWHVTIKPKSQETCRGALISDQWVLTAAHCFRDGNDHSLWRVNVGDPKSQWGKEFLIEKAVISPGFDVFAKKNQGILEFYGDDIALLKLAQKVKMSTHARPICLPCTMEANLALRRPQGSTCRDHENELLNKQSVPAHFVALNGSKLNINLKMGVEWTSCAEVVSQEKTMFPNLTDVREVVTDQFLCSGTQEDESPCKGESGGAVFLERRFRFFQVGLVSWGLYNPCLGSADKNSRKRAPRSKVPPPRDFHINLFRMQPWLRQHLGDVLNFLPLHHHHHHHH

The next assay deals with T2, human C2 V448A (human, UniProt P06681 21-752).
T2 sequence: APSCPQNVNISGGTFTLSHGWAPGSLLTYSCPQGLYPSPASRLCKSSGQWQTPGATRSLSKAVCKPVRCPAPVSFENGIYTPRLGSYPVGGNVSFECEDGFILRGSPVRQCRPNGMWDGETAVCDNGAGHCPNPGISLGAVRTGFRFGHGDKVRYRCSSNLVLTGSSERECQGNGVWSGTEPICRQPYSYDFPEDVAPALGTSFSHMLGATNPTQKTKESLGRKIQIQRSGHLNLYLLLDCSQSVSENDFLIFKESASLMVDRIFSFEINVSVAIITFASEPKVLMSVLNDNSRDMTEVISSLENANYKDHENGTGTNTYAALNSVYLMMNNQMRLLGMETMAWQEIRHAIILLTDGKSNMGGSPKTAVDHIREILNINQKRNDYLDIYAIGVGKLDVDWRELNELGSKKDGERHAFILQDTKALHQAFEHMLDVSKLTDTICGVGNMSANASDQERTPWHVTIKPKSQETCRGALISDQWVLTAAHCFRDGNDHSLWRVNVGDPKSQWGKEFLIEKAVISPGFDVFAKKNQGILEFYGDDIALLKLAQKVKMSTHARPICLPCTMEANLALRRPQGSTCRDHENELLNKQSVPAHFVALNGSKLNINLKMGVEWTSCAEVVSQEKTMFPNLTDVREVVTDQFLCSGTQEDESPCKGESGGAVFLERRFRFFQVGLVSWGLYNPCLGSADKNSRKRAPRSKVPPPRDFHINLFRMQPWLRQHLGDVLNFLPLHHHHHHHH

Another assay has as its target T3, human C2 L271A (human, UniProt P06681 21-752).
T3 sequence: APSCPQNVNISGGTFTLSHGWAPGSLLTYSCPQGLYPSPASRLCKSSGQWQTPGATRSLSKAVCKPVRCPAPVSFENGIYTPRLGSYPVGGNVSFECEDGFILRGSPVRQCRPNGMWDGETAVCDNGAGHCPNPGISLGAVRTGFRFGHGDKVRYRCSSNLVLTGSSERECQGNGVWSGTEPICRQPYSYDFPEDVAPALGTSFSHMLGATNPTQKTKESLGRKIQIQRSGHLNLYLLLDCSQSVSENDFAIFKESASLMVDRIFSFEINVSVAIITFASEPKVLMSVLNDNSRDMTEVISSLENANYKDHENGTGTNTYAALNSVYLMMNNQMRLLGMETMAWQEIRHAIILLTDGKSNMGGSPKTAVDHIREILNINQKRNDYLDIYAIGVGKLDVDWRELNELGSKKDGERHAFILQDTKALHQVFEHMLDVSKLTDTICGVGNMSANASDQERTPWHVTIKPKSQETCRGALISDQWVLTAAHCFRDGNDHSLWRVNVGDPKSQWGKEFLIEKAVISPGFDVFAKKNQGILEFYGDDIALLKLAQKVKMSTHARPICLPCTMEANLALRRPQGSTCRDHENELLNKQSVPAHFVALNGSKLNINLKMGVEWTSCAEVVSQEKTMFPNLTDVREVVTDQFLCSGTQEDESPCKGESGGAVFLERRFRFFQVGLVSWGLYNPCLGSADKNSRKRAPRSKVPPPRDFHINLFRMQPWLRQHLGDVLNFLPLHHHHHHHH

B1: RF16-242 (antibody, human IgG4 S228P, lambda, V domains shown)
VH: EVQLLQSGAEVKKPGESLKISCKGSGYSFTSYWIGWVRQMPGKGLEWMGIIYPGDSDTRYSPSFQGQVTISADKSISTAYLQWSSLKASDTAMYYCARRGHYGDYFDYWGQGTLVTVSS
VL: SYELTQPPSVSVSPGQTARITCSGDALPKKYAYWYHQKSGQAPVLVIYEDRRRPSEIPERFSGSSSGTMATLTITGAQVEDEGVYFCYSRDRAGNQRVFGGGTQLTVLG
notes: pH-dependent anti-C2 antibody from a phage display library
B1: the results for the Kd (in assay [1]; with human C2 V448A; in the assay with human C2 L271A) were 7 nM, 5 nM and 6.9 nM, respectively.

By Kd is commonly meant a measure of binding affinity in units of concentration.
